From patent publication EP2325637A1

Target: GFP-tagged Rab11a (UniProt P62491)
Experiment: cell-based or functional assay

Chain of UniProt P62491 (P62491 whole entry): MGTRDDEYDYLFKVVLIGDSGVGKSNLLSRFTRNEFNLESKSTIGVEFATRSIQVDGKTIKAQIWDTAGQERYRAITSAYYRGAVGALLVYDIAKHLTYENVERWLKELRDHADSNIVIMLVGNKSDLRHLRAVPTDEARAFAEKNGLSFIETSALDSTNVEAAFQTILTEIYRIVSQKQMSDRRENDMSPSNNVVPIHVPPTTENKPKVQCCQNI

colocalisation (confocal microscopy, HeLa cells): 100%
Substance: mCherry-MyoVa(1100-1853) fusion protein (from UniProt Q9Y4I1 1100-1828)
